Assay results reported in patent publication US20220211858A1, “TUBULAR SUPRAMOLECULAR POLYMERS” (priority 2019, published 2022).

What was measured:
[1] = TEM / cryo-TEM imaging of self-assembled nanostructures (dimensions); assay type: physicochemical
Procedure: About 200 μM stock solutions of corresponding TTs in water were prepared by dissolution of the lyophilized powders. After aging overnight, TEM samples were prepared by depositing 7 μL of the appropriate solution onto a carbon-coated copper grid (Electron Microscopy Services, Hatfield, Pa., USA), wicking away the excess solution with a small piece of filter paper. Next, 7 μL of a 2 wt % uranyl acetate aqueous solution was deposited on the surface for 30 seconds, wicking away the excess solution with filter paper. The grids were then air-dried overnight at room temperature prior to imaging. Bright-field TEM imaging was performed using an FEI Tecnai 12 TWIN Transmission Electron Microscope operated at an acceleration voltage of 100 kV. All TEM images were acquired by a SIS Megaview III wide-angle CCD camera or 16 bit 2K×2K FEI Eagle bottom mount camera.
Cryo-TEM imaging was performed using higher sample concentrations of 800 μM (compared with 200 μM for conventional TEM imaging). Extended imaging times can result in damage to the vitreous ice film caused by the electron beam and so higher concentrations can allow a more rapid visualization that reduces this likelihood. About 6 μL of the appropriate solution was dropped onto a lacey carbon-film-supported TEM copper grid (Electron Microscopy Services, Hatfield, Pa., USA). All the TEM grids used for cryo-TEM imaging were pretreated with plasma air to render the lacey carbon film hydrophilic. A thin film of the sample solution was produced using a Vitrobot with a controlled humidity chamber (FEI). After loading of the sample solution, the lacey carbon grid was blotted using preset parameters and plunged instantly into a liquid ethane reservoir precooled by liquid nitrogen. The vitrified samples were then transferred to a cryo-holder and cryo-transfer stage that was cooled by liquid nitrogen. To prevent sublimation of vitreous water, the cryo-holder temperature was maintained below −170° C. during the imaging process. All images were recorded by a Tecnai 12 microscope with a cryo-holder, and the images were acquired by a 16 bit 2K×2K FEI Eagle bottom mount camera.
Self-Assembly of SAPDs from TT1. To study the self-assembly behavior of the SAPDs, we directly dissolved the lyophilized powders in deionized water at a concentration of 2 mM and neutral pH.

[2] = tested on: U87 MG human brain cancer cells; settings: 48 h incubation, SRB, CPT concentration
Procedure: The human brain cancer cell line U87 MG was a generous gift from Dr. Wirtz (ChemBE, JHU). DMEM (Invitrogen) containing 10% fetal bovine serum (FBS, Invitrogen) and 1% antibiotics (Invitrogen) was used for the culture of the U87 MG cells. Cancer cells were incubated at 37° C. in a humidified incubator (Oasis, Caron, Marietta, Ohio, USA) with an atmosphere of 5% CO2. […] U87 MG cells were seeded onto 96-well plates (5000 cells/well) and allowed to attach overnight. […] The stock solutions were then diluted with fresh medium to achieve final CPT concentrations of 0.1, 1, 10, 100, 500, 1000, 5000 and 10000 nM. After dilution, the nanotube-containing media were used to incubate cells immediately. Medium containing the same concentration of free CPT ranging from 0.1 to 10000 nM was also used to incubate the cells, with non-treated cells (solvent only) as the control group. In addition, irinotecan at the concentration of 0.1, 1, 5, 10, 50, 100 and 500 μM was employed as a second control. After 48 h incubation, the cell viability was evaluated using the SRB method according to the manufacturer's protocols (TOX-6, Sigma, St. Louis, Mo.).

[3] = Encapsulation of hydrophobic dyes and paclitaxel in TT 1 nanotubes; assay type: physicochemical
Procedure: A 300 μM in water stock solution of TT 1 prodrug was prepared and aged overnight to form nanotubes. Hydrophobic dyes, such as Coumarin 6 (C6), Nile Red, Rose Bengal lactone (Rose), and IR 780 iodide (IR 780), were dissolved in acetonitrile at a concentration of 600 μM (FIG. 18). To perform the dye encapsulation experiments, 400 μL of the pre-formed nanotube solution and 200 μL of the corresponding dye solution in acetonitrile were mixed together to make a final solution of 600 μL (H2O/MeCN=2:1, v/v) in which the concentration of both prodrug and dye was 200 μM (prodrug/dye=1:1, mol/mol). The resulting mixed nanotube and dye solution was aged overnight to allow the penetration of dye molecules into the nanotube structures and then directly lyophilized to fully remove all the solvents. Next, the lyophilized powder was reconstituted to a final prodrug concentration of 200 μM by the addition of 600 μL of water and vortexing for 60 s. The solutions were aged for at least 6 h before being centrifuged (6000 rpm, 5 min) to remove any precipitated free dye. The supernatant was collected for further study. The dye loading capacity was calculated from the percentage of dye in the supernatant to the sum of encapsulated dye and added prodrugs. To get a higher resolution of dye-doped TT 1 solution, the solutions imaged in FIG. 4A were concentrated to a concentration of 800 μM.
In addition to functional dye molecules, the hydrophobic drug paclitaxel (PTX) was also used as a model compound to dope the TT 1 nanotubes, following the procedure described in the paragraph describing CD measurements of TT solutions above. After encapsulation, analytical HPLC was used to analyze the components of drug-doped nanotubes, monitoring the absorption at 220 nm. […] The concentrations of both nanotube and PTX were determined by comparing the area under the curve of each component with its standard calibration curve, yielding an encapsulation efficiency around 11%. The CD spectrum of PTX-doped nanotube was also recorded, showing a slight decrease in intensity compared with a pure nanotube solution at the same concentration (FIG. 17B).

[4] = Biodistribution study in U87 MG tumor-bearing mice; assay type: in vivo, nude mice
Procedure: Mice bearing subcutaneous tumors were established by injecting 100 μL of a U87 MG suspension in serum-free medium (2×10^6 cells) into the right flank of the mice. When the tumor reached a size of −200 mm^3, the mice were randomly grouped and received one of the following 3 treatments via intravenous injection (n=18 for each group): free CPT (4.5 mg/kg), TT 1 (4.5 mg/kg), and TT 1 (15 mg/kg). Three mice from each group were euthanized at pre-determined time points (1, 2, 4, 8, 12, and 24 h). Plasma, major organs, and tumors were collected and stored at −80° C. for further analysis. To determine the amount of free CPT and TT 1 in the samples, 100 mg tumors were mixed with 900 μL acetonitrile (containing 0.1% TFA) and then homogenized using Precellys Evolution Super Homogenizer (Bertin Technologies, France) for 3×40 s (5,600 shakes/min). The resulting suspensions were centrifuged and the supernatants were collected. For plasma, 50 μL of sample was mixed with 450 μL acetonitrile (containing 0.1% TFA) and sonicated for 1 min. The supernatants were collected using centrifugation. All samples were filtered through a 0.22 μm membrane before analysis by a UPLC system (Waters ACQuity™ Ultra Performance LC) equipped with a reverse-phase column (ACQuity UPLC@BEH, C18, 1.7 μm 2.1×150 mm) and a fluorescence detector (ACQuity FLR, Ex/Em=362/430 nm). The column was flushed with a mixture of water (0.1% TFA) and acetonitrile (0.1% TFA) at 0.3 mL/min with the following gradient: 5% acetonitrile (0-1 min), 5-95% acetonitrile (1-5 min), 95% acetonitrile (5-8 min), 95-5% acetonitrile (8-9 min), and 5% acetonitrile (9-10 min). Peaks with retention times of 5.4 min (free CPT) and 6.9 min (TT 1) were monitored.

With `CC[C@]1(OC(=O)OCCSSC[C@@H](NC(C)=O)C(=O)N[C@@H](CCCCNC(=O)[C@@H](CSSCCOC(=O)O[C@]2(CC)C(=O)OCc3c2cc2n(c3=O)Cc3cc4ccccc4nc3-2)NC(C)=O)C(=O)N[C@@H](CCCCNC(=O)CCOCCOCCOCCOCCOC)C(=O)N[C@@H](CCCCNC(=O)CCOCCOCCOCCOCCOC)C(N)=O)C(=O)OCc2c1cc1n(c2=O)Cc2cc3ccccc3nc2-1` [TT 1] the “wall thickness measured from toroids” value ([1]; TT 1 nanotubes, TEM) was 3.0±0.5 nm, the hollow interior diameter ([1]; TT 1 nanotubes, toroids, TEM) was 2.5±0.6 nm and the “nanotube diameter after loading” value ([1]; loaded with Coumarin 6, TEM) was 9.8±1.4 nm. The “nanotube diameter after loading” value ([1]; loaded with IR 780, TEM) was 10.2±0.9 nm, the “nanotube diameter after loading” value ([1]; loaded with Nile Red, TEM) was 9.6±1.2 nm and the “nanotube diameter after loading” value ([1]; loaded with Rose Bengal lactone, TEM) was 10.7±1.4 nm. The “diameter of PTX-doped nanotubes” value ([1]; paclitaxel-doped, 200 μM, TEM) was 10.6±0.9 nm, the “Diameters measured by conventional TEM” value ([1]; self-assembled nanotubes in water, 200 μM, n>40) was 8.8 ± 0.8 nm and the IC50 [2] was 0.149 µM. The dye loading content ([3]; Coumarin 6 (C6) in TT 1 assemblies) was 4.5%, the dye loading content ([3]; IR-780 in TT 1 assemblies) was 10.3% and the dye loading content ([3]; Nile Red in TT 1 assemblies) was 4.4%. For the same molecule, the dye loading content ([3]; Rose Bengal lactone in TT 1 assemblies) was 14.8%, the “increase of plasma concentration versus free CPT” value ([4]; 4.5 mg/kg i.v., 1 hour) was “approximately 129 fold” and the “increase of tumor concentration versus free CPT” value ([4]; 4.5 mg/kg i.v., 1 hour) was 8 fold. The “TT 1 converted to free CPT in the tumor” value ([4]; 4.5 mg/kg, 1 hour after injection) was 47%, the “TT 1 converted to free CPT in the tumor” value ([4]; 4.5 mg/kg, 8 hours) was 82% and the “TT 1 converted to free CPT in the tumor” value ([4]; 15 mg/kg, 1 hour after injection) was 58%. The “TT 1 converted to free CPT in the tumor” value ([4]; 15 mg/kg, 8 hours) was 96% and the “retention in the blood” value ([4]; i.v.) was “up to 12 hours”.
